Experimental data published in patent publication US20020197690.

Biological target: T1, 35S-labeled in vitro translated GID
T1 chain: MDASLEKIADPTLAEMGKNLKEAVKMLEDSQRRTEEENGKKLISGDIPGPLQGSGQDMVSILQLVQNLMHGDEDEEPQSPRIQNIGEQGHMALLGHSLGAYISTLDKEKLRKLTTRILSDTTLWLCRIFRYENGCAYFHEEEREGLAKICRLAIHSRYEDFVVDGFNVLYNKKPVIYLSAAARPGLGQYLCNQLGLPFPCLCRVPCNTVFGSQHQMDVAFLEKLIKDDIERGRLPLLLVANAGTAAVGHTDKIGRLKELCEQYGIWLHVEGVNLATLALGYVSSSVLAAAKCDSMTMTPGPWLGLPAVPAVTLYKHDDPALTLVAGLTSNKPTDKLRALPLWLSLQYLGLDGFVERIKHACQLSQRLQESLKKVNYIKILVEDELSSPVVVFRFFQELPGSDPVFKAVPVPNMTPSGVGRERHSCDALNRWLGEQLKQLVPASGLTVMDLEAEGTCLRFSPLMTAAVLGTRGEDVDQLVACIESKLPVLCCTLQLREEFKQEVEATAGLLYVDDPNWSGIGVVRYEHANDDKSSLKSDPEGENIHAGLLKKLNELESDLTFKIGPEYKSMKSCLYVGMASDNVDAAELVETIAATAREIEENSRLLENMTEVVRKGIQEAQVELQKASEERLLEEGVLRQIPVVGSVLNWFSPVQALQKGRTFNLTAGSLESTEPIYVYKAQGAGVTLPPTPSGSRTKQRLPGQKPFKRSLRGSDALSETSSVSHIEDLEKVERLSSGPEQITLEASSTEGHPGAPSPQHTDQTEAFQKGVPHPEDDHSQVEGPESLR

B1: recombinant caspase-3 (Pharmingen) (protein)
chain: SGISLDNSYKMDYPEMGLCIIINNKNFHKSTGMTSRSGTDVDAANLRETFRNLKYEVRNKNDLTREEIVELMRDVSKEDHSKRSSFVCVLLSHGEEGIIFGTNGPVDLKKITNFFRGDRCRSLTGKPKLFIIQACRGTELDCGIETDSGVDDDMACHKIPVEADFLYAYSTAPGYYSWRNSKDGSWFIQSLCAMLKQYADKLEFMHILTRVNRKVATEFESFSFDATFHAKKQIPCIVSMLTKELYFYH
  in vitro caspase-3 assay: cleavage of 35S-labeled in vitro translated GID (SDS-PAGE, autoradiography): Increasing amounts of caspase-3 incubated with GID resulted in greater amounts of a cleavage product of approximately 58 kDa, which was not observed in the presence of incubation with buffer alone
